Experimental data as given in patent publication US10758526B2, “Combination therapies using agents that target tumor-associated stroma or tumor cells and other pathways” (BIOMED VALLEY DISCOVERIES, INC., priority 2014, dated 2020).

Experiments:
[1] = system: H460 non-small cell lung carcinoma xenograft; test: Efficacy of M830 in the H460 non-small cell lung carcinoma xenograft model; type: in vivo, athymic nude mice; conditions: for % Tumor Reduction vs. Vehicle at Day 21: 3 times per week; for % Tumor Reduction vs. combination partner at Day (#): Day 32
Description: Animals were monitored for regression responses.
The statistical tests were not adjusted for multiple comparisons.
Cultured H460 cells were harvested during exponential growth and resuspended in phosphate buffered saline at a concentration of 1×10^8 cells/mL. 1.0×10^7 tumor cells were injected subcutaneously into the flank of athymic nude mice. Animals were euthanized when tumors reached the pre-determined volume endpoint of 2000 mm^3 or on the final day (Day 88), whichever came first.

[2] = system: HCT116 colorectal carcinoma xenograft; test: Efficacy of TEM8 antibodies in the HCT116 colorectal carcinoma xenograft model; type: in vivo, mice; conditions: HCT116 Colon; M830 alone; IP, 3 times per week; treatment initiated at 60-80 mm^3
Description: Tumor cells were cultured in RPMI-1640 medium supplemented with 10% fetal bovine serum, 2 mM glutamine, 100 units/mL penicillin G sodium, 100 μg/mL streptomycin sulfate, and 25 μg/mL gentamicin. The tumor cells were grown in tissue culture flasks in a humidified incubator at 37° C., in an atmosphere of 5% CO2 and 95% air.
2.5×10^6 to 5×10^6 HCT116 tumor cells were injected subcutaneously into the flank of mice. Tumor weights were calculated following surgical removal. Treatment was initiated when tumor volume reached 60-80 mm^3. Dosing volume was 10 mL/kg (0.2 mL/20 g mouse).
TEM8 Ab (hIgG1) doses were 5 and 15 mg/kg, three times per week, for 3 weeks. Bevacizumab was dosed at 5 mg/kg, twice per week, for 3 weeks. FIG. 1B and FIG. 1D show mean tumor growth and percent body weight change for each group, respectively, over the time course of the study.

mTEM8-Fc = target: T1, mTEM8-Fc (Mus musculus, UniProt Q9CZ52); test: Biocore affinity measurement of anti-TEM8 Fabs, mTEM8-Fc; type: binding
T1 construct: Fc
T1 sequence (Q9CZ52 31-319 limits assumed): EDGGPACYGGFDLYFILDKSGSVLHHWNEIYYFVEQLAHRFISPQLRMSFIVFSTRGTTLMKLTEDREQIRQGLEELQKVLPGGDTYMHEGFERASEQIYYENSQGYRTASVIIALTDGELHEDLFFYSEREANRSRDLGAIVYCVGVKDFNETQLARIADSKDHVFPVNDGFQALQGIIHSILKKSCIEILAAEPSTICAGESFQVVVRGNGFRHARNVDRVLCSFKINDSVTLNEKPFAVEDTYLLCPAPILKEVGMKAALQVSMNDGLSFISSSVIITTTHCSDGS

hTEM8-AP = target: T2, hTEM8-AP (Homo sapiens, UniProt Q9H6X2); test: Biocore affinity measurement of anti-TEM8 Fabs, hTEM8-AP; type: binding
T2 sequence (Q9H6X2 33-321 limits assumed): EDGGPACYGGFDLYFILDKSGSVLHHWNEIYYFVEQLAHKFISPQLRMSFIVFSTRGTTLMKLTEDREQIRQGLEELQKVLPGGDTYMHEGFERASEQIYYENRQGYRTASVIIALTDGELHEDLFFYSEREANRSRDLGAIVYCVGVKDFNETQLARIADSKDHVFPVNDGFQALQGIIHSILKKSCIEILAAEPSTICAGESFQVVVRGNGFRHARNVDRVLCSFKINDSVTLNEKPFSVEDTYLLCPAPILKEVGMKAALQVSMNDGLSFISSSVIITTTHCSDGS

[3] = Pharmacokinetics of TEM8 antibodies in mouse, multiple dose; type: in vivo
From the text: (§1) Tables 8 and 9 show pharmacokinetic properties of TEM8 antibodies according to the present invention in mouse for single dose (Table 8) and multiple dose (Table 9) treatments.

[4] = system: DLD-1 colorectal adenocarcinoma xenograft; test: Efficacy of M830 alone and in combination in the DLD-1 colorectal adenocarcinoma xenograft model; type: in vivo, mice; conditions: for % Tumor Reduction vs. Vehicle at Day 21 / % Tumor Reduction vs. combination partner at Day (#): DLD1 Colon; for % Tumor Reduction vs. Vehicle at Day 21: 3 times per week; for % Tumor Reduction vs. combination partner at Day (#): Day 21; for combination compared with any agent alone / efficacy against DLD-1 cancer cells in the xenograft model: first study
Description: Tumor weights were calculated following surgical removal. […] Irinotecan was given once per week at 60 mg/kg i.v. and bevacizumab was dosed at 5 mg/kg i.p., three times per week.
In a second study, treatment was initiated with a large tumor volume of approximately 170 mm^3. M830 alone or in combinations with bevacizumab, irinotecan, or both, was given as a loading dose of 20 mg/kg followed by 5 mg/kg three times per week. The doses of bevacizumab and irinotecan were the same as in the first study. An additional group received a combination of bevacizumab and irinotecan without the M830 antibody.

[5] = Pharmacokinetics of TEM8 antibodies in mouse, single dose; type: in vivo
From the text: as §1

UACC melanoma cells = test: TEM8 antibody efficacy in UACC melanoma model; type: in vivo, mice
Description: UACC melanoma cells were cultured and injected subcutaneously into mice. Treatment was initiated with a tumor volume of 50 mm^3, and treatment groups consisted of one of four TEM8 antibodies (M825, M830, M863, and M822), each dosed at 15 mg/kg, 3 times per week for 3-4 weeks.

[6] = system: MC38 colon carcinoma liver metastasis; test: Efficacy of M830 in MC38 colon carcinoma liver metastasis model; type: in vivo, C57BL/6 mice
From the text: C57BL/6 mice were challenged with MC38 colon carcinoma liver metastasis by intrasplenic injections of cultured cells.

[7] = Group 7: M830 in combination with paclitaxel, n=10
[8] = H460 Lung, combination partner Paclitaxel
[9] = M830 15 mg/kg IP in combination with bevacizumab 5 mg/kg IP
[10] = M830 in combination with bevacizumab, n=10
[11] = combination of M830 and paclitaxel

B1: M830: TEM8 monoclonal antibody (hIgG1), VH SEQ ID NO:5 and VL SEQ ID NO:6 (antibody, V domains shown)
VH: EVQLVESGGGVVQPGRSVRLSCAASGFTFSTYTMHWVRQAPGKGLEWVAIISNDGSNKYYADPVRGRFTISRDNSKNTLYLQMNSLRAEDTAVYYCVRGSSWYRGNWFDPWGQGTLVTVSS
VL: DIQMTQSPSSLSASVGDRVTIACRASQTISRYLNWYQQKPGKAPKLLIYAASSLQSGVSSRFSGSGSGTEFTLTISSLQPEDFATYFCQQTYSPPITFGQGTRLEIKR
modifications: TEM830 mAb VH; TEM830 mAb VL
TGD ([1]; Group 7: M830 15 mg/kg IP in combination with paclitaxel 30 mg/kg IV, maximum possible TGD 65.2 days (286%) for the 88-day study): maximum TGD
regression responses ([1]; Group 7: M830 15 mg/kg IP in combination with paclitaxel 30 mg/kg IV, n=10): 90%
CRs (complete regressions) [1, 7]: seven
PRs (partial regressions) [1, 7]: two
TFS (tumor-free survivors) at study end [1, 7]: three
% Tumor Reduction vs. Vehicle at Day 21 ([1]; H460 Lung, M830 alone, IP): 62%
% Tumor Reduction vs. combination partner at Day (#) ([1]; H460 Lung, combination partner Bevacizumab): 58.5% (32)
% Tumor Reduction vs. Vehicle at Day 21 ([1]; H460 Lung, combination partner Bevacizumab, M830 IP): 94.5%
regression (in cell of % Tumor Reduction vs. Vehicle at Day 21) [1, 8]: −61%
% Tumor Reduction vs. combination partner at Day (#) [1, 8]: 94% (32)
% Tumor Reduction vs. Vehicle at Day 21 ([1]; H460 Lung, combination partner Paclitaxel, M830 IP, treatment initiated at 60-80 mm^3): > 100%
% TGD [1, 9]: 146%
TGD [1, 9]: 33.2 days
CRs (complete regressions) [1, 10]: 3
PR (partial regressions) [1, 10]: 1
TFS (tumor-free survivors) at study end [1, 10]: three
regression responses [1, 10]: 40%
rank of activity among regimens ([1]; M830 in combination with paclitaxel): most active treatment regimen tested
combination compared with either agent alone [1, 11]: more effective than either agent alone
efficacy against H460 cancer cells in the xenograft model [1, 11]: effective
% Tumor Reduction vs. Vehicle at Day 21 [2]: 39.5%
ka (mTEM8-Fc): 774900 M⁻¹ s⁻¹
kd (mTEM8-Fc): 0.002901 s⁻¹
ka (hTEM8-AP): 607100 M⁻¹ s⁻¹
kd (hTEM8-AP): 0.0009533 s⁻¹
AUCI ([3]; 5 mg/kg): 4316.79 µg·h/mL
AUCT ([3]; 5 mg/kg): 4315.918 µg·h/mL
CLF ([3]; 5 mg/kg): 1.16 mL/h/kg
CMAX ([3]; 5 mg/kg): 86400 ng/mL
HALF ([3]; 5 mg/kg): 22.88 h
KEL ([3]; 5 mg/kg): 0.0303 h⁻¹
TMAX ([3]; 5 mg/kg): 3 h
VZF ([3]; 5 mg/kg): 0.03824 L/kg
AUCI ([3]; 15 mg/kg): 23053.875 µg·h/mL
AUCT ([3]; 15 mg/kg): 23052.853 µg·h/mL
CLF ([3]; 15 mg/kg): 0.65 mL/h/kg
CMAX ([3]; 15 mg/kg): 330000 ng/mL
HALF ([3]; 15 mg/kg): 18.70 h
KEL ([3]; 15 mg/kg): 0.0371 h⁻¹
TMAX ([3]; 15 mg/kg): 3 h
VZF ([3]; 15 mg/kg): 0.01755 L/kg
% Tumor Reduction vs. Vehicle at Day 21 ([4]; M830 alone, IP): 68%
% Tumor Reduction vs. combination partner at Day (#) ([4]; combination partner Bevacizumab): 48% (21)
% Tumor Reduction vs. Vehicle at Day 21 ([4]; combination partner Bevacizumab, M830 IP): 86%
% Tumor Reduction vs. combination partner at Day (#) ([4]; combination partner Irinotecan): 53% (21)
% Tumor Reduction vs. Vehicle at Day 21 ([4]; combination partner Irinotecan, M830 IP, treatment initiated at about 50 mm^3): 86%
combination compared with any agent alone ([4]; combination M830/bevacizumab): more effective than any agent alone
efficacy against DLD-1 cancer cells in the xenograft model ([4]; combination M830/bevacizumab): effective
combination compared with any agent alone ([4]; combination M830/irinotecan): more effective than any agent alone
efficacy against DLD-1 cancer cells in the xenograft model ([4]; combination M830/irinotecan): effective
triple combination compared with M830/bevacizumab combination ([4]; second study, M830 with bevacizumab and irinotecan): did not outperform the M830/bevacizumab combination therapy
AUCI ([5]; 5 mg/kg): 2242.485 µg·h/mL
AUCT ([5]; 5 mg/kg): 2242.286 µg·h/mL
CLF ([5]; 5 mg/kg): 2.23 mL/h/kg
CMAX ([5]; 5 mg/kg): 67500 ng/mL
HALF ([5]; 5 mg/kg): 8.54 h
KEL ([5]; 5 mg/kg): 0.0811 h⁻¹
TMAX ([5]; 5 mg/kg): 3 h
VZF ([5]; 5 mg/kg): 0.02748 L/kg
AUCI ([5]; 15 mg/kg): 10692.742 µg·h/mL
AUCT ([5]; 15 mg/kg): 10692.598 µg·h/mL
CLF ([5]; 15 mg/kg): 1.40 mL/h/kg
CMAX ([5]; 15 mg/kg): 203000 ng/mL
HALF ([5]; 15 mg/kg): 14.94 h
KEL ([5]; 15 mg/kg): 0.0464 h⁻¹
TMAX ([5]; 15 mg/kg): 3 h
VZF ([5]; 15 mg/kg): 0.03024 L/kg
slowing of tumor growth (UACC melanoma cells; 15 mg/kg, 3 times per week for 3-4 weeks, treatment initiated at 50 mm^3): effective at slowing tumor growth
% Tumor Reduction vs. Vehicle at Day 21 (UACC melanoma cells; UACC Melanoma, M830 alone, IP, 3 times per week, treatment initiated at about 50 mm^3): 65%
survival of mice ([6]; P=0.0001): significantly improved the survival
median survival rate ([6]; versus 11 days for vehicle treated mice): 17 days
